One molecule from patent publication US11110115B2, “Nucleic acid molecule with anti-inflammatory and anti-coagulant and organ-protective properties” (APTAHEM AB, priority 2017, dated 2021) can be followed below.

The nature of data set [1]: Tail bleeding model (bleeding time). The note with it: for group average bleeding time compared to matched vehicle group: SEQ ID NO:2 5, 20, 40 mg/kg i.v. 5 min before, Rivaroxaban 10 mg/kg PO 1 hour before, Warfarin 0.5 mg/kg IV. Type of data set: in vivo, Sprague-Dawley rats. The protocol: A total of 36 Sprague-Dawley male and female rats were utilized and divided into six groups comprising of 6 animals per group. Animal handling was performed according to guidelines of the National Institute of Health and the Association for Assessment and Accreditation of Laboratory Animal Care. Animals were fed ad libitum a commercial rodent diet (Teklad Certified Global 18% Protein Diet cat #: 2018SC). Animals had free access to autoclaved and acidified drinking water (pH between 2.5 and 3.5) obtained from the municipality supply. Animals were housed under standard laboratory conditions, air conditioned and filtered with adequate fresh air supply. Animals were kept in a climate controlled environment.
SEQ ID NO:2 (Biospring) (100 mg) was dissolved in 5 ml saline to form a stock solution of 20 mg/ml. Vehicle (saline) was provided by Pharmaseed as ready to use for i.v. administration. Rivaroxaban (Bayer, Pharmaseed Ltd) dosing solution was diluted at 10 mg/kg (Group 2M). Warfarin (Ceriliant, Pharmaseed Ltd) was diluted at 0.5 mg/kg (Group 3M). Both Rivaroxaban and Warfarin are clinical standards with anticoagulation activity. To obtain SEQ ID NO:2 dosing solution (2.5 mg/ml) for dose level of 5 mg/kg and dose volume of 2 ml/kg for i.v. injection, 0.375 ml of the above 20 mg/ml stock solution was diluted with 2.625 ml of saline (Group 4M). To obtain SEQ ID NO:2 dosing solution (10 mg/ml) for dose level of 20 mg/kg and dose volume of 2 ml/kg for i.v. injection, 1.5 ml of the above 20 mg/ml stock solution was diluted with 1.5 ml saline (Group 5M). To obtain SEQ ID NO:2 dosing solution (20 mg/ml) for dose level of 40 mg/kg and dose volume of 2 ml/kg for i.v. injection, the above 20 mg/ml stock used (Group 6).
Rats were intravenously injected five minutes before bleeding time assay. […] Three treated groups received SEQ ID NO:2 at dose levels of 5, 20 and 40 mg/kg saline solution. In each gender, control groups received saline Vehicle. A positive control group received Rivaroxaban (10 mg/kg). Rivaroxaban was administered by oral gavage 1 hour before bleeding time assay. A second positive control groups received Warfarin (0.5 mg/kg).
Male and female rats were anaesthetized by intraperitoneal injection of ketamine/xylazine. Bleeding time was monitored as described in Stupnisek et al. (2012), until blood flow stopped for a complete 30-sec interval or till the end of 30 min period. In deeply anaesthetized rats (placed in ventral position) the tail was transected with a surgical scalpel 2 mm from the tip (and submerged into a tube with 40 ml of saline at room temperature in vertical position) and the duration and amount of bleeding was measured to evaluate the hemostatic effect of the agents or saline administration. Following the completion of bleeding time evaluation, all rats were immediately sacrificed by CO2 asphyxiation.
Numerical results were given as means±standard errors. If applicable, statistical analysis was carried out using one-way ANOVA followed by Dunnett's Multiple Comparison post Test. A probability of 5% (p≤0.05) was regarded as significant.

Data set [2] deals with IL-10, TNF, IL-6 and IL-1β in serum. In words: LPS-induced cytokine production model, serum cytokines. The class given is in vivo, C57BL/6 mice. The note with it: 2 h after LPS. As to the method: Female C57BL/6 mice (Taconic Biosciences) were 8 weeks of age at the start of the study. Animals had free access to autoclaved and acidified drinking water. Animals were housed under standard laboratory conditions, air conditioned and filtered with adequate fresh air supply. Animals were kept in a climate controlled environment.
SEQ ID NO:2 (Biospring) (100 mg) was dissolved in 5 ml saline to form a stock solution of 20 mg/ml. Vehicle is saline solution.
Dexamethasone stock was prepared by mixing dexamethasone and beta-cyclodextrin at a 4:96 ratio, solubilized in PBS at 2 mg dexamethasone/mL and stored at −20° C. Dosing solution of dexamethasone was prepared by diluting the stock solution to 1 mg/mL with PBS. Dexamethasone administered at 5 to 10 mg/kg, i.p. is used as a positive control for suppression of the immune response.
Two hours after LPS injection mice were bled and serum was isolated and added to EDTA in Gel Clot Activator tubes. At least 100 μl has been analysed. The concentration of IL-10, TNF, IL-6 and IL-1β in serum was measured using eBioscience's Luminex kit, according to manufacturer's protocol. A single analysis was performed on every sample.

[3] abbreviates: 25 mg/kg i.v., not statistically significant.
Where [4] appears, read: 50 mg/kg i.v., not statistically significant.

B1: SEQ ID NO:2: nucleic acid sequence of SEQ ID NO:1 in which each C and U is fluorinated to increase stability in plasma (nucleic acid)
chain: GGGAAUUCGAGCUCGGUACCAACAAUACGACUACACCAUCAAAAGUAUUAUCUUGCAUCGAAGGUUGGCACGUAGCAAGCUCUGCAGUCG
modifications: fluorinated C and U; (6)..(7) uracil is fluorinated; (8)..(8) cytosine is fluorinated; (12)..(12) cytosine is fluorinated; (13)..(13) uracil is fluorinated; (14)..(14) cytosine is fluorinated; (17)..(17) uracil is fluorinated; (19)..(20) cytosine is fluorinated; (23)..(23) cytosine is fluorinated; (26)..(26) uracil is fluorinated; (28)..(28) cytosine is fluorinated; (31)..(31) cytosine is fluorinated; (32)
B1: the “anti-coagulation activity relative to clinical care standards (Rivaroxaban and Warfarin)” value in data set [1] (all doses (5, 20, 40 mg/kg i.v.), bleeding time) was “equivalent”. The “group average bleeding time compared to matched vehicle group” value in data set [1] (female rats) and in data set [1] (male rats) was “increased significantly” each time. Also, the “dose response effect on bleeding time” value in data set [1] (male rats, 5, 20, 40 mg/kg i.v.) is recorded as “can be observed”. For the same molecule, the figures for the “IL-1β concentration in serum compared to vehicle group” value in data set [2] (5 mg/kg i.v.) and in data set [2] (setting [3]) were “similar” and “lower”, respectively. The “IL-6 concentration in serum compared to vehicle group” value in data set [2] (5 mg/kg i.v.) is given as “similar”; in data set [2] (setting [3]), “lower”; in data set [2] (setting [4]), “lower”. Further, the “TNF concentration in serum compared to vehicle group” value in data set [2] (5 mg/kg i.v.) is recorded as “similar”; in data set [2] (setting [3]), “lower”; in data set [2] (setting [4]) it was “lower”. Moreover, the “serum concentration of IL-10, difference to vehicle group” value in data set [2] (25 mg/kg i.v. 5 min before LPS) and in data set [2] (50 mg/kg i.v. 5 min before LPS) was “significant” throughout. The “reduction in IL-1β concentration in serum compared to vehicle group” value in data set [2] (50 mg/kg i.v.) was “statistically significant”. Besides, in data set [2] (SEQ ID NO:2 groups (5, 25, 50 mg/kg i.v.) 5 min before LPS), the “serum concentration of IL-10 compared to vehicle group” value is listed as “increase”.
